Data reported in article PMC2998453.

How the values were obtained:
[1] = target: mCAT-1, murine cationic amino acid transporter (ecotropic receptor) (mouse (endogenous in C17.2 NSCs and NIH 3T3 fibroblasts; Mus dunni fibroblasts in the infectious center assay)) (UniProt Q09143)
[2] = target: mCAT-1, murine cationic amino acid transporter (ecotropic receptor) (mouse (endogenous in C17.2 NSCs and NIH 3T3 fibroblasts; Mus dunni fibroblasts in the infectious center assay)) (UniProt Q09143); remark: listed apart in the source
[3] = target: mCAT-1, murine cationic amino acid transporter (ecotropic receptor) (mouse (endogenous in C17.2 NSCs and NIH 3T3 fibroblasts; Mus dunni fibroblasts in the infectious center assay)) (UniProt Q09143); remark: listed apart in the source

UniProt Q09143, sequence (Q09143 whole entry): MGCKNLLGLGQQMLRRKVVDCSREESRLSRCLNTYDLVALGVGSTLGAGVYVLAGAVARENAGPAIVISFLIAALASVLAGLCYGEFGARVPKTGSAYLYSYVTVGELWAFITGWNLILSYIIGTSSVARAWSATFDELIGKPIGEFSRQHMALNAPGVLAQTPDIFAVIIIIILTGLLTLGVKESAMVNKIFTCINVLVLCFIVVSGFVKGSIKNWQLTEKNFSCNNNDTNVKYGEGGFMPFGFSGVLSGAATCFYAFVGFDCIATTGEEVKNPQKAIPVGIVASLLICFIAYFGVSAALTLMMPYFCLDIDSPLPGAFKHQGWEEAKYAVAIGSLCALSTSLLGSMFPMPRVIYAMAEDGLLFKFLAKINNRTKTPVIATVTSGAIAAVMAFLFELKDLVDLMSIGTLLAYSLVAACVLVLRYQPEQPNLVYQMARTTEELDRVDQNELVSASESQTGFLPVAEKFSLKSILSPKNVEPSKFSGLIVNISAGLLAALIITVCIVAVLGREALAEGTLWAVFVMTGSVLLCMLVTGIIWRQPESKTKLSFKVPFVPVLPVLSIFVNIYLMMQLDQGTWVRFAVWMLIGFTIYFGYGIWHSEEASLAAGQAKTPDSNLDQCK

Question: With “CasBrE SU (surface subunit of the CasBrE Env, made from the CasES vector without the TM subunit) (domain or fragment)” as the substance, how does the infectious center assay: CasES+4070A-NSCs on DunniAm; infectious center efficiency (foci per 100 NSCs divided by plating efficiency) [1] read?
Answer: The infectious center assay: CasES+4070A-NSCs on DunniAm; infectious center efficiency (foci per 100 NSCs divided by plating efficiency) was 109%.

Question: And the infectious center assay: CasES+4070A-NSCs seeded on 4070A-infected dunni fibroblasts (DunniAm); vector-positive foci per 100 NSCs seeded (foci per 100 NSCs seeded) [1]?
Answer: The infectious center assay: CasES+4070A-NSCs seeded on 4070A-infected dunni fibroblasts (DunniAm); vector-positive foci per 100 NSCs seeded (foci per 100 NSCs seeded) was 18.

Question: And the superinfection interference: reduction of the titre of the ecotropic virus Fr57E on CasES-NSCs (without 4070A) against control NSCs [2]?
Answer: Its superinfection interference: reduction of the titre of the ecotropic virus Fr57E on CasES-NSCs (without 4070A) against control NSCs is 1 log.

Question: And the superinfection interference: reduction of the titre of the ecotropic virus Fr57E on CasES-NSCs infected with 4070A [2]?
Answer: The superinfection interference: reduction of the titre of the ecotropic virus Fr57E on CasES-NSCs infected with 4070A was 5 logs.

Question: What about the virus titration: vector titre of CasES+4070A-NSC supernatant on 4070A-infected 3T3 cells (3T3Am, amphotropic receptor blocked) against naive 3T3 cells (orders of magnitude) [3] of the same substance?
Answer: The virus titration: vector titre of CasES+4070A-NSC supernatant on 4070A-infected 3T3 cells (3T3Am, amphotropic receptor blocked) against naive 3T3 cells (orders of magnitude) was > 3.
